“And” between values parts separate entries of the source, which are not always exact repeats. Equal values may be shown once.
Conditions: Escherichia coli (strain K12); pH 7.5; 25 °C; Urea; Fluorescence; Potassium phosphate 20 mM; reversible: Yes; whole UniProt chain shown

B1: Aspartate aminotransferase wild type, P00509 (protein)
chain: MFENITAAPADPILGLADLFRADERPGKINLGIGVYKDETGKTPVLTSVKKAEQYLLENETTKNYLGIDGIPEFGRCTQELLFGKGSALINDKRARTAQTPGGTGALRVAADFLAKNTSVKRVWVSNPSWPNHKSVFNSAGLEVREYAYYDAENHTLDFDALINSLNEAQAGDVVLFHGCCHNPTGIDPTLEQWQTLAQLSVEKGWLPLFDFAYQGFARGLEEDAEGLRAFAAMHKELIVASSYSKNFGLYNERVGACTLVAADSETVDRAFSQMKAAIRANYSNPPAHGASVVATILSNDALRAIWEQELTDMRQRIQRMRQLFVNTLQEKGANRDFSFIIKQNGMFSFSGLTKEQVLRLREEFGVYAVASGRVNVAGMTPDNMAPLCEAIVAVL
With B1 the “denaturant midpoint (higher = more stable)” value was 3.89 M and 5.02 M.

— FireProtDB (doi:10.1021/bi801431x)
